Test results: patent US20230250157A1 (published 2023)
Where a chain is given by its changes, count along the chain named.

B1: M8a-25 (antibody, V domains shown)
VH: EVQLQQSVAELVRPGASVKLSCTASGFNIKNTYMHWVKQRPEQGLEWIGRIDPSIDHTRYAPKFQGKAVITAFTSSNTAYLQLSSLTSEDTAIYYCAREGGGNYPYYYAIDYWGQGTSVTVSS
VL: DIQMTQSSSSFSVSLGDRVTITCKASEDIYIRLAWYQQRPGNAPRLLISNAISLETGVPSRFSGSGFGKDHTLSITSLQTEDVATYYCQQYWSTPWTFGGGTKLEIK
B2: M8a-7 (antibody, V domains shown)
VH: QAYLQQSGAEMVRPGASVKMSCKASGYTFNNYNMHWVKQTPSQGLEWIGGFYPGNDDTAYSQKFKGKATLTVDKSSSTAFMHLSSLTSEDSAVYFCARSLGRYYAMDYWGQGTSVTVSS
VL: not shown
B3: M8a-15 (antibody, V domains shown)
VH: QVQLQQSGPELARPGASVKLSCRASGYTVTSFGLSWMKQRTGQGLEWIGEIYPTSKNTYYNDKFRTKATLTADKSSSTAYMELRSLTSEDSAVYFCVLYDYFDYWGQGTTLTVSS
VL: QIVLTQSPAIMSASPGEKVTISCSASSSVSYMYWYQQKTGSSPKPWIYRTSNLASGVPVRFSGSGSGTSYSLTISSMEAEDAATYYCQQYQSYPRTFGGGTKLEIK
B4: M8a-29 (antibody, V domains shown)
VH: B1 VH
VL: DIVMTQAAFSNPVTLGTSASISCRSTKSLLHSNGITYLYWYLQKPGQSPQLLIYQMSNLASGVPDRFSSSGSGTDFTLRISRVEAEDVGVYYCAQNLELPYTFGGGTKLEIK
B5: M8a-11 (antibody, V domains shown)
VH: EVQLQQSGPELVKPGASVKIPCKASGYTFTDYNMDWVKQSHEKSLEWIGEIDPNNGDTIYNQKFKGKASLTVDKSSSTAYMELRSLTSEDTAVYYCAKRGYYGSSLWWYFDVWGTGTTVTVSS
VL: B1 VL with F67S, H71Y
B6: M8a-28 (antibody, V domains shown)
VH: QVQLQQPGAELVKPGASVKMSCKASGYNFNHYWISWVKQRPGQGLEWIGDIYPLSHFTTYNEKFTNRATLTVDTSSTTAYMQLNSLTSDDSAVFYCARWDYFDSRTFDYWGQGTTLTVSS
VL: DILLTQFPAILSVSPGERVSFSCRASQTIGTNIHWYQQRINGSPRLLIKYASESISGIPSRFSGSGSGTDFSLSINNVESEDIADYYCQQINSWPLTFGAGTKLDLK
B7: M8a-6 (antibody, V domains shown)
VH: QVQLQQPGTELVMPGASVKLSCKTSGYTFTHYWMHWVKQRPGEGLEWIGEIAPSDNYVKYNQKFKGKSTLSVDRSSSTAYMQLSSLTSEDSAVYFCARPDNSGYPVYFDYWGQGTSLTVSS
VL: DIVMTQSQKFMSTSLGDRVSISCKASQDVGTTVAWYQQKPGQSPKLLIYWASTRHTGVPDRFTGTGSGTDYTLTISSVAAEDLALYYCQQHYNTPYTFGGGTKLEIE
B8: M8a-3 (antibody, V domains shown)
VH: QVQLQQPGAELVLPGASVKLSCKASGYTFTNYWMHWVKQRPGHGLEWIGEIDPFDTYIKINQKFKGKSTLTVDTSSSTAYMQLSSLTSEDSAVYYCARPDSSGYPVYFDYWGQGTTLTVSS
VL: DIVMTQSHKFMSTSVGDRVSITCKASQDVGTYIAWYQQKPGQSPKLLIYWASTRHTGVPDRFTGSGSGTNYTLTISSVQAEDLALYHCQQHYSTPYTFGGGTKLEIK
B9: HSW-1 (antibody, V domains shown)
VH: QVQLQQPGAELVKPGTSMKLSCKASGYTFTSYWMHWVKQRPGQGLEWIGMIHPNSGSTKYNENFKSKATLTVDKSSSTAYMQFSSLTSEDSAVYYCVRSGSYYGTTYDYFDYWGQGTTLTVSS
VL: DIVLTQSPASLAVSLGQRATISCRASESVNIYGNSFMHWYQQKPGQPPKLLIFRASNLESGIPVRFSGSGSRTDFTLTINPVEADDVATYYCHQSNEDPFTFGSGTKLEIK
B10: M8a-30 (antibody, V domains shown)
VH: QVHLQQSGPELVKPGASVKISCKASGYGFSSSWMNWVKQRPGKGLEWIGRIYPGDGDTNYNDKFQGKATLTADRSSSTAYMHLTSLTSADSAVYFCARSLLYSFDYWGQGTTLTVSS
VL: DVVVTQTPLSLPVSFGDQVSISCRSSQSLAGSYGHTYLSWYLHKSGQSPQLLIYGISNRFSGVPDRFSGSGSGTDFTLKISTIKPEDLGMYYCLQGTHQPLTFGAGTKLELK

Molecular target: Pang17 RBD
Test: ELISA

Binder	EC50 [µg/mL]
B1	> 10
B2	> 10
B3	> 10
B4	> 10
B5	> 10
B6	> 10

Molecular target: Rs4081 RBD
Test: ELISA

Binder	EC50 [µg/mL]
B1	> 10
B2	> 10
B7	> 10
B3	> 10

Molecular target: BM4831 RBD
Test: ELISA

Binder	EC50 [µg/mL]
B1	> 10
B2	> 10
B7	> 10
B3	> 10
B4	> 10
B5	> 10
B8	> 10
B9	> 10
B6	> 10
B10	> 10

Molecular target: Rf1 RBD
Test: ELISA

Binder	EC50 [µg/mL]
B2	> 10
B4	> 10
B8	> 10

Molecular target: RmYN02 RBD
Test: ELISA

Binder	EC50 [µg/mL]
B2	> 10
B4	> 10

Molecular target: SHC014 RBD
Test: ELISA

Binder	EC50 [µg/mL]
B1	> 10
B2	> 10
B3	> 10
B4	> 10
B5	> 10

Molecular target: LyRa3 RBD
Test: ELISA

Binder	EC50 [µg/mL]
B1	> 10
B7	> 10
B3	> 10
B4	> 10
B5	> 10

Molecular target: BtKY72 RBD
Test: ELISA

Binder	EC50 [µg/mL]
B1	> 10
B2	> 10
B7	> 10
B3	> 10
B4	> 10
B5	> 10

Molecular target: RaTG13 RBD
Test: ELISA

Binder	EC50 [µg/mL]
B1	> 10
B2	> 10
B3	> 10
B4	> 10
B5	> 10
B10	> 10

Molecular target: Yun11 RBD
Test: ELISA

Binder	EC50 [µg/mL]
B1	> 10
B2	> 10
B4	> 10
B9	> 10

Molecular target: C028 RBD
Test: ELISA

Binder	EC50 [µg/mL]
B1	> 10
B2	> 10
B3	> 10
B4	> 10
B5	> 10
B10	> 10

Molecular target: Khosta2 RBD
Test: ELISA

Binder	EC50 [µg/mL]
B1	> 10
B2	> 10
B7	> 10
B3	> 10
B4	> 10
B5	> 10
B9	> 10
B10	> 10

Molecular target: RsSTT200 RBD
Test: ELISA

Binder	EC50 [µg/mL]
B1	> 10
B2	> 10
B3	> 10
B4	> 10
B5	> 10
B10	> 10
